Measured values published in the supplement of paper PMC10567573.

B1: SPOPL (parent)
chain: AKREETKAMESQRAYRFVQGKDWG

Variants of: B1
Experiment: protein stability index of a GFP-peptide fusion (GPS, HEK-293T) (PSI 1-6); higher = more stable
Conditions: c terminus: a fixed tail appended
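Further: lentivirally expressed fusions sorted by FACS into six bins by GFP to DsRed ratio, PSI derived from sequencing read proportions per bin multiplied by bin number.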

Q: For AKREDTKAMESQRAYRFVQGKDWG [E5D], which protein stability index is on record?
A: 4.16

Q: For AKREKTKAMESQRAYRFVQGKDWG [E5K], which protein stability index is on record?
A: 2.79

Q: Which protein stability index does the source give for AKRENTKAMESQRAYRFVQGKDWG [E5N] here?
A: 2.76

Q: With AKRERTKAMESQRAYRFVQGKDWG [E5R] as the variant, how does the protein stability index read?
A: 2.38

Q: With AKREHTKAMESQRAYRFVQGKDWG [E5H] as the variant, how does the protein stability index read?
A: 2.28

Q: For AKREFTKAMESQRAYRFVQGKDWG [E5F], which protein stability index is on record?
A: 2.4

Q: Which protein stability index does the source give for AKREITKAMESQRAYRFVQGKDWG [E5I] here?
A: 2.26

Q: Which protein stability index does the source give for AKREVTKAMESQRAYRFVQGKDWG [E5V] here?
A: 3.02

Q: Which protein stability index does the source give for AKRESTKAMESQRAYRFVQGKDWG [E5S] here?
A: 2.32

Q: Which protein stability index does the source give for AKRECTKAMESQRAYRFVQGKDWG [E5C] here?
A: 2.37

Q: With AKREATKAMESQRAYRFVQGKDWG [E5A] as the variant, how does the protein stability index read?
A: 2.67

Q: For AKREPTKAMESQRAYRFVQGKDWG [E5P], which protein stability index is on record?
A: 2.76

Q: Which protein stability index does the source give for AKREGTKAMESQRAYRFVQGKDWG [E5G] here?
A: 2.35

Q: With AKREQTKAMESQRAYRFVQGKDWG [E5Q] as the variant, how does the protein stability index read?
A: 2.32

Q: Which protein stability index does the source give for AKREMTKAMESQRAYRFVQGKDWG [E5M] here?
A: 2.28

Q: Which protein stability index does the source give for AKREYTKAMESQRAYRFVQGKDWG [E5Y] here?
A: 1.71

Q: Which protein stability index does the source give for AKRELTKAMESQRAYRFVQGKDWG [E5L] here?
A: 3.15

Q: For AKRETTKAMESQRAYRFVQGKDWG [E5T], which protein stability index is on record?
A: 2.9

Q: Which protein stability index does the source give for AKREWTKAMESQRAYRFVQGKDWG [E5W] here?
A: 1.75

Q: For AKRWETKAMESQRAYRFVQGKDWG [E4W], which protein stability index is on record?
A: 2.59

Q: With AKRDETKAMESQRAYRFVQGKDWG [E4D] as the variant, how does the protein stability index read?
A: 3.26

Q: For AKRLETKAMESQRAYRFVQGKDWG [E4L], which protein stability index is on record?
A: 2.26

Q: For AKRQETKAMESQRAYRFVQGKDWG [E4Q], which protein stability index is on record?
A: 2.65

Q: With AKRIETKAMESQRAYRFVQGKDWG [E4I] as the variant, how does the protein stability index read?
A: 3.2

Q: For AKRSETKAMESQRAYRFVQGKDWG [E4S], which protein stability index is on record?
A: 3.05

Q: With AKRRETKAMESQRAYRFVQGKDWG [E4R] as the variant, how does the protein stability index read?
A: 2.44

Q: Which protein stability index does the source give for AKRNETKAMESQRAYRFVQGKDWG [E4N] here?
A: 2.54

Q: Which protein stability index does the source give for AKRCETKAMESQRAYRFVQGKDWG [E4C] here?
A: 2.35

Q: With AKRFETKAMESQRAYRFVQGKDWG [E4F] as the variant, how does the protein stability index read?
A: 2.21

Q: Which protein stability index does the source give for AKRPETKAMESQRAYRFVQGKDWG [E4P] here?
A: 2.96

Q: Which protein stability index does the source give for AKRMETKAMESQRAYRFVQGKDWG [E4M] here?
A: 2.63

Q: With AKRTETKAMESQRAYRFVQGKDWG [E4T] as the variant, how does the protein stability index read?
A: 3

Q: For AKRAETKAMESQRAYRFVQGKDWG [E4A], which protein stability index is on record?
A: 2.96

Q: For AKRKETKAMESQRAYRFVQGKDWG [E4K], which protein stability index is on record?
A: 2.77

Q: Which protein stability index does the source give for AKRHETKAMESQRAYRFVQGKDWG [E4H] here?
A: 2.5

Q: Which protein stability index does the source give for AKRGETKAMESQRAYRFVQGKDWG [E4G] here?
A: 2.81

Q: For AKRYETKAMESQRAYRFVQGKDWG [E4Y], which protein stability index is on record?
A: 2.02

Q: With AKRVETKAMESQRAYRFVQGKDWG [E4V] as the variant, how does the protein stability index read?
A: 2.42

Q: Which protein stability index does the source give for AKVEETKAMESQRAYRFVQGKDWG [R3V] here?
A: 3.24

Q: For AKKEETKAMESQRAYRFVQGKDWG [R3K], which protein stability index is on record?
A: 3.38

Q: With AKHEETKAMESQRAYRFVQGKDWG [R3H] as the variant, how does the protein stability index read?
A: 2.45

Q: For AKPEETKAMESQRAYRFVQGKDWG [R3P], which protein stability index is on record?
A: 2.67

Q: With AKNEETKAMESQRAYRFVQGKDWG [R3N] as the variant, how does the protein stability index read?
A: 2.91

Q: Which protein stability index does the source give for AKTEETKAMESQRAYRFVQGKDWG [R3T] here?
A: 2.88

Q: Which protein stability index does the source give for AKDEETKAMESQRAYRFVQGKDWG [R3D] here?
A: 3.67

Q: Which protein stability index does the source give for AKAEETKAMESQRAYRFVQGKDWG [R3A] here?
A: 3.49

Q: For AKIEETKAMESQRAYRFVQGKDWG [R3I], which protein stability index is on record?
A: 3.36

Q: For AKCEETKAMESQRAYRFVQGKDWG [R3C], which protein stability index is on record?
A: 2.26

Q: With AKQEETKAMESQRAYRFVQGKDWG [R3Q] as the variant, how does the protein stability index read?
A: 3.22

Q: With AKGEETKAMESQRAYRFVQGKDWG [R3G] as the variant, how does the protein stability index read?
A: 3

Q: With AKLEETKAMESQRAYRFVQGKDWG [R3L] as the variant, how does the protein stability index read?
A: 3.31

Q: With AKFEETKAMESQRAYRFVQGKDWG [R3F] as the variant, how does the protein stability index read?
A: 2.87

Q: For AKWEETKAMESQRAYRFVQGKDWG [R3W], which protein stability index is on record?
A: 3.08

Q: For AKSEETKAMESQRAYRFVQGKDWG [R3S], which protein stability index is on record?
A: 3.34

Q: With AKYEETKAMESQRAYRFVQGKDWG [R3Y] as the variant, how does the protein stability index read?
A: 2.93

Q: Which protein stability index does the source give for AKEEETKAMESQRAYRFVQGKDWG [R3E] here?
A: 4.03

Q: For AKMEETKAMESQRAYRFVQGKDWG [R3M], which protein stability index is on record?
A: 3.32

Q: With AMREETKAMESQRAYRFVQGKDWG [K2M] as the variant, how does the protein stability index read?
A: 2.06

Q: With ANREETKAMESQRAYRFVQGKDWG [K2N] as the variant, how does the protein stability index read?
A: 3.41

Q: For ADREETKAMESQRAYRFVQGKDWG [K2D], which protein stability index is on record?
A: 3.39

Q: With APREETKAMESQRAYRFVQGKDWG [K2P] as the variant, how does the protein stability index read?
A: 3.3

Q: Which protein stability index does the source give for AWREETKAMESQRAYRFVQGKDWG [K2W] here?
A: 2.48

Q: Which protein stability index does the source give for AQREETKAMESQRAYRFVQGKDWG [K2Q] here?
A: 3.13

Q: Which protein stability index does the source give for AGREETKAMESQRAYRFVQGKDWG [K2G] here?
A: 2.6

Q: For ATREETKAMESQRAYRFVQGKDWG [K2T], which protein stability index is on record?
A: 3.37

Q: Which protein stability index does the source give for ARREETKAMESQRAYRFVQGKDWG [K2R] here?
A: 2.92

Q: Which protein stability index does the source give for AEREETKAMESQRAYRFVQGKDWG [K2E] here?
A: 3.61

Q: For AFREETKAMESQRAYRFVQGKDWG [K2F], which protein stability index is on record?
A: 2.81

Q: Which protein stability index does the source give for AYREETKAMESQRAYRFVQGKDWG [K2Y] here?
A: 2.74

Q: For AIREETKAMESQRAYRFVQGKDWG [K2I], which protein stability index is on record?
A: 2.71

Q: Which protein stability index does the source give for AHREETKAMESQRAYRFVQGKDWG [K2H] here?
A: 2.93

Q: With AAREETKAMESQRAYRFVQGKDWG [K2A] as the variant, how does the protein stability index read?
A: 3.03

Q: Which protein stability index does the source give for ALREETKAMESQRAYRFVQGKDWG [K2L] here?
A: 2.24

Q: Which protein stability index does the source give for ACREETKAMESQRAYRFVQGKDWG [K2C] here?
A: 1.75

Q: For ASREETKAMESQRAYRFVQGKDWG [K2S], which protein stability index is on record?
A: 2.85

Q: For AVREETKAMESQRAYRFVQGKDWG [K2V], which protein stability index is on record?
A: 2.98

Q: With AKREEAKAMESQRAYRFVQGKDWG [T6A] as the variant, how does the protein stability index read?
A: 2.48

Q: For AKREECKAMESQRAYRFVQGKDWG [T6C], which protein stability index is on record?
A: 3.06

Q: Which protein stability index does the source give for AKREEFKAMESQRAYRFVQGKDWG [T6F] here?
A: 2.32

Q: Which protein stability index does the source give for AKREEEKAMESQRAYRFVQGKDWG [T6E] here?
A: 3.51

Q: With AKREEDKAMESQRAYRFVQGKDWG [T6D] as the variant, how does the protein stability index read?
A: 3.18

Q: With LKREETKAMESQRAYRFVQGKDWG [A1L] as the variant, how does the protein stability index read?
A: 2.55

Q: For DKREETKAMESQRAYRFVQGKDWG [A1D], which protein stability index is on record?
A: 3.38

Q: With KKREETKAMESQRAYRFVQGKDWG [A1K] as the variant, how does the protein stability index read?
A: 2.83

Q: Which protein stability index does the source give for EKREETKAMESQRAYRFVQGKDWG [A1E] here?
A: 3.4

Q: Which protein stability index does the source give for IKREETKAMESQRAYRFVQGKDWG [A1I] here?
A: 2.59

Q: With RKREETKAMESQRAYRFVQGKDWG [A1R] as the variant, how does the protein stability index read?
A: 2.49

Q: Which protein stability index does the source give for SKREETKAMESQRAYRFVQGKDWG [A1S] here?
A: 2.81

Q: For CKREETKAMESQRAYRFVQGKDWG [A1C], which protein stability index is on record?
A: 2.14

Q: For MKREETKAMESQRAYRFVQGKDWG [A1M], which protein stability index is on record?
A: 2.77

Q: Which protein stability index does the source give for VKREETKAMESQRAYRFVQGKDWG [A1V] here?
A: 2.29

Q: Which protein stability index does the source give for GKREETKAMESQRAYRFVQGKDWG [A1G] here?
A: 2.82

Q: With PKREETKAMESQRAYRFVQGKDWG [A1P] as the variant, how does the protein stability index read?
A: 3.02

Q: With WKREETKAMESQRAYRFVQGKDWG [A1W] as the variant, how does the protein stability index read?
A: 2.61
